Test results as given in PMC3229523, “Identification of Lactoferricin B Intracellular Targets Using an Escherichia coli Proteome Chip” (PLoS ONE, 2011).
Ends that are not written are not given here. * marks the point of attachment. Biotin = O=C1N[C@H]2[C@H](CS[C@H]2CCCCC(=O)*)N1

Tests used:
Test in all cases: peptide or protein array; E. coli proteome chip: purified His-tagged proteins printed in duplicate on Fullmoon slides, blocked with 1% BSA; 10 nM N-terminal biotinylated LfcinB with 1% BSA, room temperature, 1 h; detected with DyLight 649-labeled streptavidin, ratio to DyLight 549-labeled anti-His antibody; ProCAT normalisation, local cut-off; triplicate chips
Details in all cases: both partners purified
YihI = target: T1, YihI (E. coli K-12, UniProt P0A8H6 1-169)
T1 construct: YihI, E. coli K-12
T1 sequence (looked up): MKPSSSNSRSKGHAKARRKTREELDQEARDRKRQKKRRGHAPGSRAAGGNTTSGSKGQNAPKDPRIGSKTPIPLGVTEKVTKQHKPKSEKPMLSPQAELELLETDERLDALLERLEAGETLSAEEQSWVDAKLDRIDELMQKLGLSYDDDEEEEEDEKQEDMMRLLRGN

ThiF = target: T2, ThiF (E. coli K-12, UniProt P30138 1-251)
T2 construct: ThiF, E. coli K-12
T2 sequence (looked up): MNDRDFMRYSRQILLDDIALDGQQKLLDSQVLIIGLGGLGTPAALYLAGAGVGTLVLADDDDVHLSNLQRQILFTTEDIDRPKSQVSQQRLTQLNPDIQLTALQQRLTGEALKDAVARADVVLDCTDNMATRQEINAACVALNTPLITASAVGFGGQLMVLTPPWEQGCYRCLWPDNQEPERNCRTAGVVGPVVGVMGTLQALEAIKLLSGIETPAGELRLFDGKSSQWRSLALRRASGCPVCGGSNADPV

Smg = target: T3, Smg (E. coli K-12, UniProt P0A828 1-157)
T3 construct: Smg, E. coli K-12
T3 sequence (looked up): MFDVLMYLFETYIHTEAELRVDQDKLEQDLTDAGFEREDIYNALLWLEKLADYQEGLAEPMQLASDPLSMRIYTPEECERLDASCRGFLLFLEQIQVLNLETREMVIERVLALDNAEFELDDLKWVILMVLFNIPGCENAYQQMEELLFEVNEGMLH

DinG = target: T4, DinG (E. coli K-12, UniProt P27296 1-716)
T4 construct: DinG, E. coli K-12
T4 sequence (looked up): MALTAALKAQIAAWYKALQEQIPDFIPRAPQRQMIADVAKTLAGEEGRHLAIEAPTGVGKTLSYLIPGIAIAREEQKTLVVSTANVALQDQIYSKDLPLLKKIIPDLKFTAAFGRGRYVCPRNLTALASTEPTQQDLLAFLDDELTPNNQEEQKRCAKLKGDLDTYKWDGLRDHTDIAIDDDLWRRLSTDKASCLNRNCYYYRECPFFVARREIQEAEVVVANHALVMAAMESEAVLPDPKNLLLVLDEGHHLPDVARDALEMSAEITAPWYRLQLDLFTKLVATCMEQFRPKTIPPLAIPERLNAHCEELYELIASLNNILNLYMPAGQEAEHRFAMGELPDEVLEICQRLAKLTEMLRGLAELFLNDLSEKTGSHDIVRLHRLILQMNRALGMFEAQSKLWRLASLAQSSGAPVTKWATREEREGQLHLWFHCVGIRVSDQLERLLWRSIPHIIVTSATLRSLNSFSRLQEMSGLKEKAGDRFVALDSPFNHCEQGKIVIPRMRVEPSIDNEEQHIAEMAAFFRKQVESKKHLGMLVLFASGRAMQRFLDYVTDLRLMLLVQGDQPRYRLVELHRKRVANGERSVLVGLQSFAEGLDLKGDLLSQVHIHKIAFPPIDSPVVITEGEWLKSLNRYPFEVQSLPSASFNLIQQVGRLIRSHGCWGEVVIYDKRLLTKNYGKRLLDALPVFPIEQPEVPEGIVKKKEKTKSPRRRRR

AdiY = target: T5, AdiY (E. coli K-12, UniProt P33234 1-253)
T5 construct: AdiY, E. coli K-12
T5 sequence (looked up): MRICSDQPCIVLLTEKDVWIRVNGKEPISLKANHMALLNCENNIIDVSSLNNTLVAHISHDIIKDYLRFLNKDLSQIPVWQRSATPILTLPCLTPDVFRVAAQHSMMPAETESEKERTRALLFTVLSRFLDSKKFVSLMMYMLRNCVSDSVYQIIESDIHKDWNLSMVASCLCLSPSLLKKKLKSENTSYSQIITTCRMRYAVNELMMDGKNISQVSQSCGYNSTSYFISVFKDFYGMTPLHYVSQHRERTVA

YhgA = target: T6, YhgA (E. coli K-12, UniProt P31667 1-292)
T6 construct: YhgA, E. coli K-12
T6 sequence (looked up): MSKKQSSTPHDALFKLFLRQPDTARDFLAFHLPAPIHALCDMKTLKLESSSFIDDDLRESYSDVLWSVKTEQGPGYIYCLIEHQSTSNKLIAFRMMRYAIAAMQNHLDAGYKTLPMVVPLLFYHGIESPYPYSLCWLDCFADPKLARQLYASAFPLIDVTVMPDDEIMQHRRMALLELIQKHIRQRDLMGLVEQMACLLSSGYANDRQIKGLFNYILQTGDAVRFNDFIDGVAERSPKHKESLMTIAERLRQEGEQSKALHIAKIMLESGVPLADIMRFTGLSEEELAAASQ

Measured: binding result

B1: N-terminal biotinylated Lactoferricin B (peptide, UniProt P24627 36-60, looked up)
peptide: Biotin-FKCRRWQWRMKKLGAPSITCVRRAF
modifications: ends and bridges not checked
notes: lactoferricin B (LfcinB), cationic antimicrobial peptide of 25 amino acids; also called biotinylated LfcinB; biotin-labeled LfcinB; source: bought: Kelowna Inc
binds: YihI | ThiF | Smg | DinG | AdiY | YhgA
